Results as given in patent US20050100554A1 (published 2005).

Tests used:
[1] = target: T1, tripartite motif-containing 29 (human, UniProt Q14134 1-588); assay: Y2H; INT ID 404
T1 construct: also called TRIM29; cbe_3833533
T1 sequence: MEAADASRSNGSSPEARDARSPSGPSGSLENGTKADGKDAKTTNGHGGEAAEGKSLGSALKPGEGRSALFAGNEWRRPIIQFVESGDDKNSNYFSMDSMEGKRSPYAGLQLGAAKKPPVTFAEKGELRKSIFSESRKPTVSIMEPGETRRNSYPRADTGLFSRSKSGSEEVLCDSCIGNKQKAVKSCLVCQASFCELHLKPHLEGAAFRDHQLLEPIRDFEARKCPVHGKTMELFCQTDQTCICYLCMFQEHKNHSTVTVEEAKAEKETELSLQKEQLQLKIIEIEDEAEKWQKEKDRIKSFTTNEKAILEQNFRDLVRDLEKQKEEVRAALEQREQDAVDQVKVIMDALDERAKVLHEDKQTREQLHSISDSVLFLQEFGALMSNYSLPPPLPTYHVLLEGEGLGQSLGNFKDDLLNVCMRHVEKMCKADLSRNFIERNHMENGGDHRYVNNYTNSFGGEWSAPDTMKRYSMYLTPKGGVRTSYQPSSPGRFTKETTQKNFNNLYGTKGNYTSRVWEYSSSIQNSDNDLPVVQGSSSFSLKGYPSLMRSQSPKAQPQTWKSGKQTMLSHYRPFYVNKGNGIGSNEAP

[2] = target: T2, catenin (cadherin-associated protein), delta 2 (neural plakophilin-related arm-repeat protein) (human, UniProt Q9UQB3 1-1225); assay: Y2H; INT ID 397
T2 construct: also called CTNND2; cbe_1796502
T2 sequence: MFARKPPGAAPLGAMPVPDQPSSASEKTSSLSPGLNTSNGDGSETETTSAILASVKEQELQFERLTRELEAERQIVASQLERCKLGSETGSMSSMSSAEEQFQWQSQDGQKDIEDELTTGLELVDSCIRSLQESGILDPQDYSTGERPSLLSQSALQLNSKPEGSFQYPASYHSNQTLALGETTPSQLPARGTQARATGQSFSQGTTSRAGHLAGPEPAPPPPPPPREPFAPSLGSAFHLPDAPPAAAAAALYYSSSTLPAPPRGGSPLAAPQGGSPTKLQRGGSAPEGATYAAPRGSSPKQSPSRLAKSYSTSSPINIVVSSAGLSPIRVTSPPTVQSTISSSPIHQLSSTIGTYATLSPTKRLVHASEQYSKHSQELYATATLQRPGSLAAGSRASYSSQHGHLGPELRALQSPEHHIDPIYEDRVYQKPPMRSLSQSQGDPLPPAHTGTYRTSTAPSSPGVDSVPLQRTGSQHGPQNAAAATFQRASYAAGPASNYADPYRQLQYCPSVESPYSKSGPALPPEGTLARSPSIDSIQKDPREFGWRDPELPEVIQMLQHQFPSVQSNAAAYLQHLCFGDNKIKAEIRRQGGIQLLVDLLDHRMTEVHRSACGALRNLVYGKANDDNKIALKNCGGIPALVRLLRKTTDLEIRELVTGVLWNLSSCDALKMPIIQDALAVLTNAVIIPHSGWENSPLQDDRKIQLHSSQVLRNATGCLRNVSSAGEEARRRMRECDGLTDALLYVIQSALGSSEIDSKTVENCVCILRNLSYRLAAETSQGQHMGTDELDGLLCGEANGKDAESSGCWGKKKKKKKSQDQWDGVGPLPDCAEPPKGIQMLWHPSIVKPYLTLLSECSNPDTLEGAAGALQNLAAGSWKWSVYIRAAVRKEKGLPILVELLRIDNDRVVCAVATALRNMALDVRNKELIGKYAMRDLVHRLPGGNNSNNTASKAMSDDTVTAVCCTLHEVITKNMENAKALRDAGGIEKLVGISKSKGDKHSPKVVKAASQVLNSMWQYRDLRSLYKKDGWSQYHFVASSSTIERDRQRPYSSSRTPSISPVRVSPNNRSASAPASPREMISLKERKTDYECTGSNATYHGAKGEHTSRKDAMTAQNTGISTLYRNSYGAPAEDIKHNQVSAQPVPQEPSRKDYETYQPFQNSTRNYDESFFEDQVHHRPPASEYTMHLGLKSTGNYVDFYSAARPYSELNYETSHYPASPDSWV

ribosomal protein L13 = target: T3, ribosomal protein L13 (human, UniProt P26373 1-211); assay: Y2H; INT ID 396
T3 construct: also called RPL13; cbe_1380530

Prey1207 = target: T4, Prey1207 (human, UniProt Q6PI78 63-240); assay: Y2H; INT ID 409
T4 construct: also called LOC157378; hypothetical protein BC017881
T4 sequence: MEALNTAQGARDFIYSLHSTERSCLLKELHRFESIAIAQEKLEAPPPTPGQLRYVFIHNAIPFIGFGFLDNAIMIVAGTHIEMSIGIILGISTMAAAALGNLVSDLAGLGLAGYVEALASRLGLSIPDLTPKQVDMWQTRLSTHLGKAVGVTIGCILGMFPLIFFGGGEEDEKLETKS

Prey2313 = target: T5, Prey2313 (human, UniProt Q8WV44 21-380); assay: Y2H; INT ID 399
T5 construct: also called Homo sapiens, clone IMAGE: 3625550, mRNA, partial cds; cbe_2685998
T5 sequence: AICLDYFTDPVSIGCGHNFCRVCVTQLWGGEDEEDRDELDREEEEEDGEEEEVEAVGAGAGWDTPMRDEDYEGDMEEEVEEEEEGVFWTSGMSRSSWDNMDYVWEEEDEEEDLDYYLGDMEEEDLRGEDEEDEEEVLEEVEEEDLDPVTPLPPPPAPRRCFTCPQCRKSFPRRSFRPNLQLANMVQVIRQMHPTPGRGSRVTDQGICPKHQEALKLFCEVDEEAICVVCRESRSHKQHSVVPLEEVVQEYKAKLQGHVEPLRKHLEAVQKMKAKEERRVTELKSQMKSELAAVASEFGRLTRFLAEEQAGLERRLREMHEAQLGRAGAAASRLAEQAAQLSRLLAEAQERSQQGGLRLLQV

Measured: binding result

B1: Human Papillomavirus 1a E1-E4 (other)
chain: MADNKAPQGLLGLLQYTPTTQPYPRVTPPSNRRPSTTPNSQDRGRPRRSDKDSRKHLYADGLTDGEDPEVPEVEDEEKENQRPLGHPDLSLLRETLEVYTQRLKRDILQDLDDFCRKLGIHPWSV
notes: also called HPV 1a E1-E4; cbe_251740
binds: all assays above
